Numbering of substitutions follows the chain as printed. Starred links: 1 amine or outer side, 2 acyl side, 3 side chain; linkers in the order of their positions; H or OH if unused. Non-standard residues stand in square brackets, D forms with d. Groups on a side chain read outwards from the residue. *: point of attachment. C15 diacid = O=C(O)CCCCCCCCCCCCCC(=O)*; γGlu = O=C(O)[C@H](CCC(=O)[*:2])N[*:1]; AEEA = NCCOCCOCC(=O)O; Aib = CC(C)(N)C(=O)O
What was measured:
[1] = molecular target: full-length human GLP-1R with an N-terminal FLAG tag, overexpressed on HEK-293T cells (human, UniProt P43220 24-463); test: cell-based or functional assay
[2] = molecular target: T1, full-length human GIPR with an N-terminal FLAG tag, overexpressed on HEK-293T cells (human, UniProt P48546 22-466); test: cell-based or functional assay
T1 sequence (looked up): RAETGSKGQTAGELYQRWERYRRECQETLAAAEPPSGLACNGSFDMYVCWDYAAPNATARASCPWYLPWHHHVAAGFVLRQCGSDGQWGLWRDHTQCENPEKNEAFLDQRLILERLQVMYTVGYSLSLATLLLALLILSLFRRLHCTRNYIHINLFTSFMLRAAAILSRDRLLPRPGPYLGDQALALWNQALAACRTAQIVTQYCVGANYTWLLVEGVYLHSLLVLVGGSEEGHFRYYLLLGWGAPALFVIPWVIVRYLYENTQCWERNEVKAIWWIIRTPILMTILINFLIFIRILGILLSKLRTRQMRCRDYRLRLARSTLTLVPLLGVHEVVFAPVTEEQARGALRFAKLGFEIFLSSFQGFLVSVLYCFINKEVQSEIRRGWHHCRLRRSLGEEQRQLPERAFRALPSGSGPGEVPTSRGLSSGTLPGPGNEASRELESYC

B1: Compound 159 (peptide)
peptide: YXEGTFISDYSIAXDRXAQXDFVNWLLAQSPG
modifications: N-terminal Me (Me-Tyr1); Aib at 2, 17, 20; Km = Lys(R) at 14, linker printed GS (read as G5 = GGGGG), lipid C15DA (C15 diacid); C-terminal OH
[1]
  Human GLP1R cAMP HEK293T EC50: 145 nM
[2]
  Human GIPR cAMP, HEK293T EC50: 0.0002 nM

B2: Compound 186 (peptide)
peptide: B1 peptide with A13X, X14L
modifications: N-terminal Me (Me-Tyr1); Aib at 2, 13, 20; Km = Lys(R) at 17, linker printed GS (read as G5 = GGGGG), lipid C15DA (C15 diacid); C-terminal OH
[1]
  Human GLP1R cAMP HEK293T EC50: 26.9 nM
[2]
  Human GIPR cAMP, HEK293T EC50: 0.0003 nM

B3: Compound 182 (peptide)
peptide: B1 peptide with A13X
modifications: N-terminal Me (Me-Tyr1); Aib at 2, 13, 17, 20; Km = Lys(R) at 14, linker printed GS (read as G5 = GGGGG), lipid C15DA (C15 diacid); C-terminal OH
[1]
  Human GLP1R cAMP HEK293T EC50: 155 nM
[2]
  Human GIPR cAMP, HEK293T EC50: 0.0002 nM

## Me-Y[Aib]EGTFISDYSIALDR[Aib]K([AEEA-AEEA-γGlu-γGlu-C15 diacid])Q[Aib]DFVNWLLAQSG-OH [Compound 163]
[1]
  Human GLP1R cAMP HEK293T EC50: > 1000 nM
[2]
  Human GIPR cAMP, HEK293T EC50: 0.0003 nM

## Me-Y[Aib]EGTFISDYSIALDR[Aib]AQ[Aib]K([AEEA-AEEA-γGlu-γGlu-C15 diacid])FVNWLLAQSPG-OH [Compound 184]
[1]
  Human GLP1R cAMP HEK293T EC50: > 1000 nM
[2]
  Human GIPR cAMP, HEK293T EC50: 0.0003 nM

## Me-Y[Aib]EGTFISDYSIALDR[Aib]K([AEEA-AEEA-γGlu-γGlu-C15 diacid])Q[Aib]NFVNWLLAQSG-OH [Compound 161]
[1]
  Human GLP1R cAMP HEK293T EC50: > 1000 nM
[2]
  Human GIPR cAMP, HEK293T EC50: 0.0003 nM

B4: Compound 157 (peptide)
peptide: YXEGTFISDYSIAXDRXAQXDFVNWLLAQSPSSGAPG
modifications: N-terminal Me (Me-Tyr1); Aib at 2, 17, 20; Km = Lys(R) at 14, linker printed GS (read as G5 = GGGGG), lipid C15DA (C15 diacid); C-terminal OH
[1]
  Human GLP1R cAMP HEK293T EC50: 347 nM
[2]
  Human GIPR cAMP, HEK293T EC50: 0.0001 nM

## Me-Y[Aib]EGTFISDYSIALDR[Aib]AQ[Aib]KFVNWLLAQKG-OH (not fully specified (residues 1, 21)) [Compound 214]
[2]
  Human GIPR cAMP, HEK293T EC50: 0.0003 nM

## Me-Y[Aib]EGTFISDYSIAK([Gly-Gly-Gly-Gly-γGlu-C15 diacid])DR[Aib]AQ[Aib]DFVNWLLAQKG-OH [Compound 180]
[1]
  Human GLP1R cAMP HEK293T EC50: > 1000 nM
[2]
  Human GIPR cAMP, HEK293T EC50: 0.0003 nM

## Me-Y[Aib]EGTFISDYSI[Aib]LDR[Aib]AQ[Aib]K([AEEA-AEEA-γGlu-γGlu-C15 diacid])FVNWLLAQKG-OH [Compound 175]
[1]
  Human GLP1R cAMP HEK293T EC50: 44.7 nM
[2]
  Human GIPR cAMP, HEK293T EC50: 0.0004 nM

## Me-Y[Aib]EGTFISDYSI[Aib]LDR[Aib]AQ[Aib]KFVNWLLAQRG-OH (not fully specified (residues 1, 21)) [Compound 208]
[2]
  Human GIPR cAMP, HEK293T EC50: 0.0003 nM

## Me-Y[Aib]EGTFISDYSIALDR[Aib]KQ[Aib]DFVNWLLAQSG-OH (not fully specified (residues 1, 18)) [Compound 170]
[1]
  Human GLP1R cAMP HEK293T EC50: > 1000 nM
[2]
  Human GIPR cAMP, HEK293T EC50: 0.0004 nM

B5: Compound 158 (peptide)
peptide: YXEGTFISDYSIAXDRXAQXDFVNWLLAQSPSSG
modifications: N-terminal Me (Me-Tyr1); Aib at 2, 17, 20; Km = Lys(R) at 14, linker printed GS (read as G5 = GGGGG), lipid C15DA (C15 diacid); C-terminal OH
[1]
  Human GLP1R cAMP HEK293T EC50: 245 nM
[2]
  Human GIPR cAMP, HEK293T EC50: 0.0002 nM

B6: Compound 185 (peptide)
peptide: Me-Y[Aib]EGTFISDYSI[Aib]LDR[Aib]KQ[Aib]DFVNWLLAQSPG-OH
modifications: not fully specified (residues 1, 18); printed as Me-Tyr-Aib-Glu-Gly-Thr-Phe-Ile-Ser-Asp-Tyr-Ser-Ile-Aib-Leu-Asp-Arg-Aib-Lys(R)-Gln-Aib-Asp-Phe-Val-Asn-Trp-Leu-Leu-Ala-Gln-Ser-Pro-Gly-OH
[1]
  Human GLP1R cAMP HEK293T EC50: > 1000 nM
[2]
  Human GIPR cAMP, HEK293T EC50: 0.0004 nM

## Me-Y[Aib]EGTFISDYSIALDR[Aib]K([AEEA-AEEA-γGlu-γGlu-C15 diacid])Q[Aib]DFVNWLLAQRG-OH [Compound 162]
[1]
  Human GLP1R cAMP HEK293T EC50: 513 nM
[2]
  Human GIPR cAMP, HEK293T EC50: 0.0002 nM

## Me-Y[Aib]EGTFISDYSIALDR[Aib]KQ[Aib]DFVNWLLAQRG-OH (not fully specified (residues 1, 18)) [Compound 169]
[1]
  Human GLP1R cAMP HEK293T EC50: > 1000 nM
[2]
  Human GIPR cAMP, HEK293T EC50: 0.0006 nM

## Me-Y[Aib]EGTFISDYSIALDR[Aib]K([AEEA-AEEA-γGlu-γGlu-C15 diacid])Q[Aib]NFVNWLLAQRG-OH [Compound 171]
[1]
  Human GLP1R cAMP HEK293T EC50: > 1000 nM
[2]
  Human GIPR cAMP, HEK293T EC50: 0.0005 nM

## Me-Y[Aib]EGTFISDYSIAKDR[Aib]AQ[Aib]DFVNWLLAQRG-OH (not fully specified (residues 1, 14)) [Compound 173]
[1]
  Human GLP1R cAMP HEK293T EC50: > 1000 nM
[2]
  Human GIPR cAMP, HEK293T EC50: 0.0005 nM

## Me-Y[Aib]EGTFISDYSI[Aib]LDR[Aib]AQ[Aib]K([AEEA-AEEA-γGlu-γGlu-C15 diacid])FVNWLLAQSPG-OH [Compound 183]
[1]
  Human GLP1R cAMP HEK293T EC50: 89.1 nM
[2]
  Human GIPR cAMP, HEK293T EC50: 0.0005 nM

B7: Compound 164 (peptide)
peptide: YXEGTFISDYSIALDRXAQXNFVNWLLAQSPSSGAPPPS
modifications: N-terminal Me (Me-Tyr1); Aib at 2, 20; Km = Lys(R) at 17, linker printed GS (read as G5 = GGGGG), lipid C15DA (C15 diacid); C-terminal NH2
[1]
  Human GLP1R cAMP HEK293T EC50: 9.77 nM
[2]
  Human GIPR cAMP, HEK293T EC50: 0.0002 nM

B8: Compound 167 (peptide)
peptide: B7 peptide with N21D
modifications: N-terminal Me (Me-Tyr1); Aib at 2, 20; Km = Lys(R) at 17, linker printed GS (read as G5 = GGGGG), lipid C15DA (C15 diacid); C-terminal NH2
[1]
  Human GLP1R cAMP HEK293T EC50: 41.7 nM
[2]
  Human GIPR cAMP, HEK293T EC50: 0.0004 nM

B9: Compound 166 (peptide)
peptide: B7 peptide with N21D
modifications: N-terminal Me (Me-Tyr1); Aib at 2, 20; Km = Lys(R) at 17, linker printed GS (read as G5 = GGGGG), lipid C15DA (C15 diacid); C-terminal OH
[1]
  Human GLP1R cAMP HEK293T EC50: 89.1 nM
[2]
  Human GIPR cAMP, HEK293T EC50: 0.0004 nM

B10: Compound 187 (peptide)
peptide: B7 peptide with A13X, L14X
modifications: N-terminal Me (Me-Tyr1); Aib at 2, 13, 17, 20; Km = Lys(R) at 14, linker printed GS (read as G5 = GGGGG), lipid C15DA (C15 diacid); C-terminal OH
[1]
  Human GLP1R cAMP HEK293T EC50: 51.3 nM
[2]
  Human GIPR cAMP, HEK293T EC50: 0.0002 nM

B11: Compound 165 (peptide)
peptide: B7 peptide with N21D, S30R
modifications: N-terminal Me (Me-Tyr1); Aib at 2, 20; Km = Lys(R) at 17, linker printed GS (read as G5 = GGGGG), lipid C15DA (C15 diacid); C-terminal OH
[1]
  Human GLP1R cAMP HEK293T EC50: 85.1 nM
[2]
  Human GIPR cAMP, HEK293T EC50: 0.0004 nM

B12: Compound 160 (peptide)
peptide: YXEGTFISDYSIAXDRXAQXNFVNWLLAQSG
modifications: N-terminal Me (Me-Tyr1); Aib at 2, 17, 20; Km = Lys(R) at 14, linker printed GS (read as G5 = GGGGG), lipid C15DA (C15 diacid); C-terminal OH
[1]
  Human GLP1R cAMP HEK293T EC50: 24 nM
[2]
  Human GIPR cAMP, HEK293T EC50: 0.0003 nM

B13: Compound 172 (peptide)
peptide: B12 peptide with N21D
modifications: N-terminal Me (Me-Tyr1); Aib at 2, 17, 20; Km = Lys(R) at 14, linker printed GS (read as G5 = GGGGG), lipid C15DA (C15 diacid); C-terminal OH
[1]
  Human GLP1R cAMP HEK293T EC50: 64.6 nM
[2]
  Human GIPR cAMP, HEK293T EC50: 0.0004 nM

B14: Compound 177 (peptide)
peptide: B12 peptide with R16S, N21D, S30K
modifications: N-terminal Me (Me-Tyr1); Aib at 2, 17, 20; Km = Lys(R) at 14, linker printed GS (read as G5 = GGGGG), lipid C15DA (C15 diacid); C-terminal OH
[1]
  Human GLP1R cAMP HEK293T EC50: 1000 nM
[2]
  Human GIPR cAMP, HEK293T EC50: 0.0002 nM

B15: Compound 181 (peptide)
peptide: B12 peptide with N21D, S30X
modifications: N-terminal Me (Me-Tyr1); Aib at 2, 17, 20; Km = Lys(R) at 14, linker printed GS (read as G5 = GGGGG), lipid C15DA (C15 diacid); K(Ac) (N-epsilon-acetyllysine) at 30; C-terminal OH
[1]
  Human GLP1R cAMP HEK293T EC50: 162 nM
[2]
  Human GIPR cAMP, HEK293T EC50: 0.0004 nM

B16: Compound 168 (peptide)
peptide: B12 peptide with X14L, N21D
modifications: N-terminal Me (Me-Tyr1); Aib at 2, 20; Km = Lys(R) at 17, linker printed GS (read as G5 = GGGGG), lipid C15DA (C15 diacid); C-terminal OH
[1]
  Human GLP1R cAMP HEK293T EC50: 17.4 nM
[2]
  Human GIPR cAMP, HEK293T EC50: 0.0003 nM
